Experimental data reported in patent publication US20110300156A1 (Genmab, published 2011).

T1: murine tissue factor (TF) on transfected HEK293F cells (murine, UniProt P20352 29-294)
T1 construct: whole, on cells; also called murine TF; TFmm
T1 sequence (looked up): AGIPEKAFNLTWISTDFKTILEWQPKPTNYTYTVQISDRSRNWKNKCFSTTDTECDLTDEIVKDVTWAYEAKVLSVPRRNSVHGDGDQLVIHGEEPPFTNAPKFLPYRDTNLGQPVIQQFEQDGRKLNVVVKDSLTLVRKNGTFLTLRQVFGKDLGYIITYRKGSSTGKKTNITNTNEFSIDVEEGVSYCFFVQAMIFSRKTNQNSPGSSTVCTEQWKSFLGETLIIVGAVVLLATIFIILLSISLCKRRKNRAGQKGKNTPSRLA


Columns and labels:
[1] = biological target: T2, human tissue factor (TF), membrane-bound on cells (human, UniProt P13726 33-295); assay: cell-based or functional assay
[2] = biological target: T3, TF (Innovin) (UniProt P13726 33-295, limits assumed); assay: cell-based or functional assay
[3] = biological target: T2, human tissue factor (TF), …; assay: cell-based or functional assay; remark: listed apart in the source
[4] = biological target: T2, human tissue factor (TF), …; assay: FACS, MDA-MB-231 cells, 30 µg/mL
Method: (§1) Cells were resuspended in PBS (2×10⁶ cells/ml), put in 96-well V-bottom plates (50 μl/well). 50 μl of serially diluted HuMab in FACS buffer (PBS supplemented with 0.1% BSA and 0.02% Na-azide) was added to the cells and incubated for 30 minutes on ice. After washing three times with FACS buffer, 50 μl of phycoerythrin (PE)-conjugated goat anti-human IgGFc (Jackson ImmunoResearch), diluted 1:100 in FACS buffer, was added. After 30 minutes on ice (in the dark), cells were washed three times, and specific binding of the HuMabs was detected by flow cytometry on a FACSCalibur (BD Biosciences). HuMab-KLH was used as a negative control. Mouse anti-TF followed by PE-conjugated anti-mouse IgGFc was used as positive control. Binding curves were analyzed using non-linear regression (sigmoidal dose-response with variable slope) using GraphPad Prism V4.03 software (GraphPad Software, San Diego, Calif., USA).

[5] = biological target: T2, human tissue factor (TF), …; assay: FACS, A431 cells, 30 µg/mL
Method: as §1

[6] = biological target: T2, human tissue factor (TF), …; assay: FACS, Bx-PC3 cells
Method: as §1

[7] = biological target: T2, human tissue factor (TF), …; assay: FACS, Bx-PC3 cells, 30 µg/mL
Method: as §1

[8] = biological target: T4, TFECDHis (extracellular domain of tissue factor, amino acid 1-251, with C-terminal His tag) (human, UniProt P13726 33-251); assay: competition ELISA, inhibition of FVIIa (100 nM) binding to coated TFECDHis
T4 construct: range 1-251; The stated range 1-251 starts at residue 1 of NP-001984; also called extracellular domain of TF
Method: ELISA plates were coated overnight with TFECDHis (0.5 μg/mL, 100 μL per well). Plates were emptied, blocked with PBS containing 2% (v/v) chicken serum (1 hour, RT), and emptied again. […] Plates were washed and incubated with swine-anti-rabbit IgG-HRP antibody (1:2,500; DAKO). After washing, the immune complexes were visualized using ABTS as a substrate.

[9] = biological target: T2, human tissue factor (TF), …; assay: FACS, A431 cells
Method: as §1

[10] = biological target: T4, TFECDHis (extracellular domain of …); assay: SPR BIAcore 3000, HuMab immobilized, TFECDHis analyte
Method: (§2) Antibody binding to TF was analyzed by surface plasmon resonance in a BIAcore 3000 (GE Healthcare). TFECDHis was used for the analysis. HuMab antibodies (500 resonance units) were immobilized on the CM-5 sensor chip according to the procedure recommended by the manufacturer. Briefly, after surface activation by EDC and NHS HuMab antibody was injected over the activated CM-5 surface in 10 mM sodium-acetate, pH ranging from 4.0 to 5.5 at 5 μl/min. followed by 1 M Ethanolamine for deactivation. Concentration series of TFECDHis in HBS-EP buffer were injected over the immobilized antibodies at a flow rate of 30 μl/min for 180 sec. Regeneration of the HuMab surface was performed by injection of 10 mM Glycine-HCl pH 2.0 or 10 mM sodium acetate pH 3.0. Kinetic analysis was performed using double reference subtraction and model 1:1 (langmuir) binding analysis.

[11] = biological target: T1, murine tissue factor (TF) on …; assay: FACS on transfected HEK293F cells, 30 µg/mL antibody [panel E]
[12] = biological target: T2, human tissue factor (TF), …; assay: FACS, MDA-MB-231 cells
Method: as §1

[13] = biological target: T2, human tissue factor (TF), …; assay: FACS, TF transfected CHO cells (S1015-TF)
Method: as §1

[14] = biological target: T2, human tissue factor (TF), …; assay: cell-based or functional assay; remark: listed apart in the source
[15] = biological target: T2, human tissue factor (TF), …; assay: FACS, TF transfected CHO cells (S1015-TF), 7.5 µg/mL
Method: as §1

[16] = biological target: T3, TF (Innovin); assay: cell-based or functional assay; remark: listed apart in the source
[17] = biological target: T4, TFECDHis (extracellular domain of …); assay: ELISA, coated TFECDHis, mean of 3
Method: The specificity of the obtained anti-TF HuMabs was evaluated by ELISA. ELISA plates (Microlon; Greiner Bio-One) were coated overnight at +4° C. with 0.5 μg/mL of TFECDHis in PBS, pH 7.4. Coated ELISA plates were emptied and blocked for one hour at room temperature with 2% (v/v) chicken serum (Gibco, Paisley, Scotland) in PBS and washed with PBS containing 0.05% Tween 20 (PBST). Subsequently, HuMabs, serially diluted in PBSTC (PBS supplemented with 2% (v/v) chicken serum and 0.05% (v/v) Tween-20), were incubated for 1 hr at RT under shaking conditions (300 rpm). Bound HuMabs were detected using HRP-conjugated goat-anti-human IgG antibodies (Jackson ImmunoResearch) diluted 1:5,000 in PBSTC, which were incubated for 1 hr at RT under shaking conditions (300 rpm). […] HuMab-KLH (a human monoclonal antibody against KLH (keyhole limpet haemocyanin)), was used as a negative control. Mouse anti-human TF (ERL) was used as positive control (HRP labeled anti-mouse IgG as conjugate). Binding curves were analyzed using non-linear regression (sigmoidal dose-response with variable slope) using GraphPad Prism V4.03 software.

[18] = biological target: T1, murine tissue factor (TF) on …; assay: FACS on transfected HEK293F cells, 30 µg/mL antibody [panel N]
[19] = biological target: T4, TFECDHis (extracellular domain of …); assay: SPR avidity format: TFECDHis immobilized, bivalent HuMab as analyte (printed as avidity nM)
Method: as §2
TF (TFECDHis) binding to TF-specific HuMabs was determined essentially as described above, with TFECDHis being immobilized on the CM-5 sensor chip (300 resonance units), and concentration series of Humab antibodies used for kinetic analysis. Kinetic analysis was performed using double reference subtraction and model 1:1 (langmuir) binding analysis.

[20] = biological target: T2, human tissue factor (TF), …; assay: FACS on AsPC-1 cells (~175.000 TF molecules/cell) [panel AsPC-1 cells]
Method: as §1
(§3) Binding of anti-TF HuMabs to membrane-bound TF on cell lines expressing different levels of TF was determined by FACS analysis, essentially as described supra. Mouse anti-TF antibody followed by PE-conjugated anti-mouse IgGFc was used as a positive control. Fluorescence was measured on a FACSCantoII. Binding curves were analyzed essentially as described supra, using GraphPad Prism 5 software. The amount of TF molecules on cell lines was determined by Qifi kit (Dako, Glostrup, Denmark), according to the manufacturer's instructions.

[21] = biological target: T2, human tissue factor (TF), …; assay: FACS on MDA-MB-231 cells (~900.000 TF molecules/cell) [panel MDA-MB-231 cells]
Method: as §1, §3

[22] = biological target: T1, murine tissue factor (TF) on …; assay: FACS on transfected HEK293F cells, 30 µg/mL antibody [panel O]

EC50 of ADCC, A431 cells [1] [pM]	EC50 of ADCC, MDA-MB-231 cells [1] [pM]	% max inhibition of FXa generation [2] [%]	IC50, inhibition of FXa generation [2] [pM]	IC50, inhibition of FVIIa induced IL-8 release (MDA-MB-231) [3] [pM]	max inhibition of FVIIa induced IL-8 release (MDA-MB-231) [3] [%]	Max MFI [4]	Max MFI [5]	EC50 [6] [pM]	Max MFI [7]	max inhibition [8] [%]	EC50 [9] [pM]	EC50 [12] [pM]	EC50 [13] [pM]	% max inhibition of FVIIa induced ERK phosphorylation (A431) [14] [%]	IC50, inhibition of FVIIa induced ERK phosphorylation (A431) [14] [pM]	Max MFI [15]	Binder	also measured
160	240	19	300	23100	75.6	2250	3170	880	1320	90	5190	690	730	66	2160	5810	anti-TF HuMab 025 (antibody, V domains shown, Human monoclonal antibody from HuMab mice) VH: QVQLVESGGGVVQPGRSLRLSCAASGFTFSRYAMHWVRQAPGKGLEWVAVISNDGYNDYYADSVKGRFTVSRDNSKNTLYLQMNSLRAEDTAVYYCARDGQLGRGYFDYWGQGTLVTVSS VL: EIVLTQSPATLSLSPGERATLSCRASQSVSSYLAWYQQKPGQAPRLLIYDASNRATGIPARFSGSGSGTDFTLTISSLEPEDFAVYYCQQRSNWPLTFGGGTKVEIK	EC50 of ADCC, Bx-PC3 cells [1]: 150 pM; Kd [10]: 1970 pM; binding result [11]: no binding (tested: 30 µg/mL); IC50, inhibition of blood coagulation (TF induced clotting time) [16]: 2300 pM; EC50 [17]: 340 pM
1560	840	7	70	> 200000	40.1	1770	3040	1830	1130	79	2880	1030	550	52	> 66600	5350	anti-TF HuMab 111 (antibody, V domains shown, Human monoclonal antibody from HuMab mice) VH: QVQLVESGGGVVQPGRSLRLSCAGSGFTFNRYAMYWVRQAPGKGLDWVAVISNDGINKYYADSVKGRFTISRDNSKNTLYLQMNSLRAEDTAVYYCARDHTMVRGAFDYWGQGTLVTVSS VL: EIVLTQSPATLSLSPGERATLSCRASQSVSSYLAWYQQKPGQAPRLLIYDASNRATGIPARFSGSGSGTDFTLTISSLEPEDFAVYYCQQRSNWPLTFGGGTKVEIK	binding result [18]: no binding (tested: 30 µg/mL); Kd [19]: 110 pM; EC50 (read off the curve) [20]: ~0.1 µg/mL; EC50 (read off the curve) [21]: ~0.06 µg/mL
–	–	–	–	–	–	–	–	–	–	90	–	–	–	–	–	–	anti-TF HuMab 114 (antibody, V domains shown, Human monoclonal antibody from HuMab mice) VH: QVQLVESGGGVVQPGRSLRLSCVASGFTVSNDGMHWVRQAPGKGLEWVALIWYDGVNKNYADSVKGRFTISRDKSKNTLYLQMNSLRAEDTAVYYCARRPGTFYGLDVWGQGTTVTVSS VL: not shown	binding result [22]: no binding (tested: 30 µg/mL)
